Legend:
[1] = target: T1, p53 (wild-type recombinant, p53r) (UniProt P04637 1-393); assay: EMSA; 200 ng p53, 20 fmol probe; shift blocked by anti-p53 pab421 or DO1; 1X binding buffer (Promega), 100 ng poly(dI-dC), 10 mM DTT, 1 mg/ml BSA, 4 °C, 30 min; 5% native PAGE at 4 °C; salt and pH not stated; conditions: protein: commercial; chain copies: 4; label: 5' biotin; blunt
[2] = target: T1, p53 (wild-type recombinant, p53r); assay: competition EMSA; 4 pmol cold competitor (200-fold excess) blocks shift of N1; 1X binding buffer (Promega), 100 ng poly(dI-dC), 10 mM DTT, 1 mg/ml BSA, 4 °C, 30 min; 5% native PAGE at 4 °C; salt and pH not stated; conditions: protein: commercial; chain copies: 4; blunt

T1 sequence (P04637 whole entry): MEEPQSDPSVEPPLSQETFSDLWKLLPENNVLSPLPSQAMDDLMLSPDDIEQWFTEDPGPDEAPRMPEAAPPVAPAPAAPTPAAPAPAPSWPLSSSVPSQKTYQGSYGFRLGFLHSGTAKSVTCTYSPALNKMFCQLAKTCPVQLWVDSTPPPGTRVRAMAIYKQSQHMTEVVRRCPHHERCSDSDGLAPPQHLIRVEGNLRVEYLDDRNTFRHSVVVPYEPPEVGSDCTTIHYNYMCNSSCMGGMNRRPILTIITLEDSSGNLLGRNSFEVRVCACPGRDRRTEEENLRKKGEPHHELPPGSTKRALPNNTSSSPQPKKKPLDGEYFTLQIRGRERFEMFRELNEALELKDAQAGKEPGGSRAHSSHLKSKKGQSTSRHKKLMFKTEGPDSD

Row | Binder | binding result [1] | binding result [2]
1 | alpha-syn promoter probe (p53 half-site) (dsDNA) DNA 1: CCTTTCGCTGGAGACATGCCCTTCCATCCTGTCAAAGCCC DNA 2: GGGCTTTGACAGGATGGAAGGGCATGTCTCCAGCGAAAGG | binds | –
2 | unlabeled specific competitor (comp-sp) (dsDNA) DNA 1: CCTTTCGCTGGAGACATGCCCTTCCATCCTGTCAAAGCCC DNA 2: GGGCTTTGACAGGATGGAAGGGCATGTCTCCAGCGAAAGG | – | binds

Source: paper PMC4736712, “Direct α-synuclein promoter transactivation by the tumor suppressor p53”
